B1: SLC19A2 (parent)
chain: FASLRPSEPFLTPYLLGPDKNLTE
B2: TOR1AIP2 (parent)
chain: YKYCDHENAAFKDVALVLTVLLEE

Variants of: B1
Assay: protein stability index of a GFP-peptide fusion (GPS, HEK-293T) (PSI 1-6); higher = more stable
Settings: c terminus: a fixed tail appended
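Also: lentivirally expressed fusions sorted by FACS into six bins by GFP to DsRed ratio, PSI derived from sequencing read proportions per bin multiplied by bin number.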

Protein stability index: each site, then its substitutions
D19: P 1.67
N21: H 1.29; A 1.51; C 1.33; G 1.52; Y 2.42; R 1.95; E 2.02; I 2.02; P 1.31; T 1.56; V 2.51; K 1.6; W 2.31; M 2.39; S 1.47; D 1.84; F 1.67; Q 1.88; L 1.87

Variants of: B2
Assay: as above
Settings: c terminus: a fixed tail appended

Protein stability index: each site, then its substitutions
Y1: C 2.66; T 2.48; N 2.13; H 1.04; R 2.28; K 2.68; D 1.03; P 1.71; L 2.17
L16: H 1.9; P 2.36; N 2.88; K 2.72; W 3.88; R 1.4; S 2.2; T 1.5; C 1.47; E 1.51
V14: R 1.54; P 1.88; E 1.57; L 4.94; A 2.48; H 1.4; C 1.65; D 1.46; T 1; K 2.12; I 2.17
C4: D 1.05; G 1.35
L18: C 1.6; G 3.58; I 4.54; D 4.76; A 1.91; E 3.93; H 2.77; F 2
K2: S 2.14; D 2.03; L 2.81; N 1.99; Y 2.95; W 1.98; M 1.96
F11: K 1.2; T 1.49; C 1.03; I 1.07; Q 2.6; H 2.44; N 1.38; G 3.68; A 2.73; S 2.04; Y 2.67
Y3: L 2.89; P 3.07; S 2.41; V 1.83; D 2.78; A 3.02; C 1.51
A10: P 1.16; L 2.83; M 1.93; G 2.42; K 3.02; Y 3.38; W 3.86; R 1.01; I 2.35; S 1.98
N8: S 2.9; V 1.81; Q 2.7; E 1.56; Y 2.07; R 4.51; M 3.45
H6: Q 3.06; C 2.09; P 2; G 2.26; V 2.57; I 1.05; L 2.49
A15: R 2.8; Q 2.58; E 1; I 1.96; T 3.21; P 2.05; S 2.69; G 3.58
A9: W 3.05; E 1.75; I 3.88; N 3.72; C 4.55; D 1.4; Q 3.72
V17: E 2.51; S 3.6; A 3.79; K 1.89; D 2.23; G 2.05; M 1.94; R 1.73; Y 3.19; F 2.66; P 3.33; Q 1.84; W 2.31; N 2.3
D5: E 3.08; S 2.61; Y 2.4; P 3.2; L 2.43; R 3.8; N 2.94
D13: G 1.75; E 2.46; C 2.1; F 2.83; L 3.1; T 2.09; Y 4.52; S 2.91; Q 2.66
K12: D 1.81; A 3.1; Y 2.97; C 4.02; Q 3.33
E7: P 3.94; L 2.71; R 2.5; I 3.39; S 2.31; Q 2.52; C 4.53; N 3.84

From the supplement of paper PMC10567573
